Assay results as given in FireProtDB (doi:10.1007/s00792-015-0748-z).

B1: L-asparaginase, Q8TZE8 (parent)
chain: MKILLIGMGGTIASVKGENGYEASLSVKEVLDIAGIKDCEDCDFLDLKNVDSTLIQPEDWVDLAETLYKNVKKYDGIIVTHGTDTLAYTSSMISFMLRNPPIPIVFTGSMIPATEENSDAPLNLQTAIKFATSGIRGVYVAFNGKVMLGVRTSKVRTMSRDAFESINYPIIAELRGEDLVVNFIPKFNNGEVTLDLRHDPKVLVIKLIPGLSGDIFRAAVELGYRGIVIEGYGAGGIPYRGSDLLQTIEELSKEIPIVMTTQAMYDGVDLTRYKVGRLALRAGVIPAGDMTKEATVTKLMWILGHTNNVEEIKVLMRKNLVGELRD

Variants of: B1
Conditions: Pyrococcus furiosus (strain ATCC 43587 / DSM 3638 / JCM 8422 / Vc1); pH 8; 60 °C; GdnHCl; Fluorescence; Tris; NaCl; transition: 2; reversible: yes; structure 4Q0M; whole UniProt chain shown

Variant	ddG of mutation (higher = less stable) [kcal/mol]	denaturant m value [kcal/mol/M]	denaturant midpoint (higher = more stable) [M]	unfolding free energy [kcal/mol]
W301F	-3.98	6.21	3.18	19.7
W60F		4.23	2.82	11.9
